{
  "source": "patent US20240269237A1",
  "about": "“PHARMACEUTICAL COMPOSITION AND KIT COMPRISING AN IMMUNOMODULATORY SUBSTANCE FOR TREATING DISEASES” (ellennbe GmbH, priority 2021, published 2024)",
  "origin": "cited, not measured here",
  "molecules": {"B1": {"name": "certolizumab pegol (antibody, chains of the INN, looked up, V domains shown)", "VH": "EVQLVESGGGLVQPGGSLRLSCAASGYVFTDYGMNWVRQAPGKGLEWMGWINTYIGEPIYADSVKGRFTFSLDTSKSTAYLQMNSLRAEDTAVYYCARGYRSYAMDYWGQGTLVTVSS", "VL": "DIQMTQSPSSLSASVGDRVTITCKASQNVGTNVAWYQQKPGKAPKALIYSASFLYSGVPYRFSGSGSGTDFTLTISSLQPEDFATYYCQQYNIYPLTFGQGTKVEIK"}},
  "test_system": "ankylosing spondylitis (Bechterew's disease)",
  "conditions": "Patient 11, history; within half a year the biologics lost their effect",
  "data": [
    {"molecule": "B1", "values": [
      {"measurement": "effect of earlier treatment with biologics", "result": "little effect from the outset"}
    ]}
  ]
}
